Laboratory results from patent US20230149507A1, “TREATMENT OF ALT CANCERS” (INSTITUTO DE MEDICINA MOLECULAR JOÃO LOBO ANTUNES, priority 2019, published 2023).

Experiments:
[1] = biological target: T1, FANCM-BTR complex (Homo sapiens, UniProt Q96E14+Q9H9A7); experiment: Flag-FANCM immunoprecipitation of the FANCM-BTR complex with MM2 peptides added to cellular lysates; format: binding; details: peptide 1-50 μM, lysates of HEK-293 cells expressing Flag-FANCM
T1 construct: expressed in transfected cells; host or cells: HEK-293
T1 sequence (Q9H9A7 1-625): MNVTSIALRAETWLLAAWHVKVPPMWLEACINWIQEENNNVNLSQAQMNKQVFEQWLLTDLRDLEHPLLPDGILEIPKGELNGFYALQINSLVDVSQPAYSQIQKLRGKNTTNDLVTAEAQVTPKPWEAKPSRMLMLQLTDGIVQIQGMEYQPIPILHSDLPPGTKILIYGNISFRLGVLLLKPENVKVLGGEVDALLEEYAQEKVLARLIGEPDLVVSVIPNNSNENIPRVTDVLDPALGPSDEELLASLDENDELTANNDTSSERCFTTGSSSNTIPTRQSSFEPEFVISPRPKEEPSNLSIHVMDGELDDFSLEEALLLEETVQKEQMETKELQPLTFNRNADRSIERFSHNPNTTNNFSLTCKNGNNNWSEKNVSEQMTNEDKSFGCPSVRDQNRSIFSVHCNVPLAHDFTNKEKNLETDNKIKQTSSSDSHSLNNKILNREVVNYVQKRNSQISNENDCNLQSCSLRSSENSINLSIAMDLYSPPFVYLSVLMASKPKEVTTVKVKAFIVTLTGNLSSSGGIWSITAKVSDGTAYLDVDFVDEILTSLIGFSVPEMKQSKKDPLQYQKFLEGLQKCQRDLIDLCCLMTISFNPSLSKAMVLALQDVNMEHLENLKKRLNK
T1 sequence (Q96E14 2-147 limits assumed): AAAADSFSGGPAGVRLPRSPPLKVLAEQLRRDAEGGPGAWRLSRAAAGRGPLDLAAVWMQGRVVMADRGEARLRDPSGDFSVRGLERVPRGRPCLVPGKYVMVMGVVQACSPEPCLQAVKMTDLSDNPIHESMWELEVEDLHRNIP
T1 sequence (Q13472 1-1001 partner): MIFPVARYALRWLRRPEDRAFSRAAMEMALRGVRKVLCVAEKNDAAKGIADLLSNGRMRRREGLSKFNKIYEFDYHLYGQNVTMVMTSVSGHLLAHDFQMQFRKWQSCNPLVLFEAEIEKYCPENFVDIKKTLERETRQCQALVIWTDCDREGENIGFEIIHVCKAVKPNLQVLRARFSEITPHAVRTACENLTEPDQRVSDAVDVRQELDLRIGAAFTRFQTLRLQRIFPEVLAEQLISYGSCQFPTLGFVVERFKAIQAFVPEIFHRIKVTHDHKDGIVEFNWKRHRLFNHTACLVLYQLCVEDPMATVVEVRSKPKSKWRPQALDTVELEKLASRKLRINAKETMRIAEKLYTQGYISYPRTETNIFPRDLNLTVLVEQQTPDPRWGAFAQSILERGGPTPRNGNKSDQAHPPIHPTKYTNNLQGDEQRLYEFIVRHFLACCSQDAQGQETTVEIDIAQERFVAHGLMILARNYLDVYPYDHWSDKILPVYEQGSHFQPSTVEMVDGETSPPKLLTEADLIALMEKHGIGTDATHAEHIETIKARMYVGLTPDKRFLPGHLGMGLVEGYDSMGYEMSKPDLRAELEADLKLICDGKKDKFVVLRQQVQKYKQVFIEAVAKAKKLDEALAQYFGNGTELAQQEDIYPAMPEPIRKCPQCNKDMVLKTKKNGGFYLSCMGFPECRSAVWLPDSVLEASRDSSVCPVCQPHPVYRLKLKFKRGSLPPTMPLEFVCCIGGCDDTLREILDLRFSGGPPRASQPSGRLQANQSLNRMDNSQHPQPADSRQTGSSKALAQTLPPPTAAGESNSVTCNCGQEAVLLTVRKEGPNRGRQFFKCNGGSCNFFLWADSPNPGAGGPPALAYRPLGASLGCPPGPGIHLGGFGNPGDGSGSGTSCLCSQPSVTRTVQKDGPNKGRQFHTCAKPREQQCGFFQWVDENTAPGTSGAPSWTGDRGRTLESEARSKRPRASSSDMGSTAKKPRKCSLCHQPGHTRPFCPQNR
Description: FIG. 10. Characterization of the MM2-ER fusion protein. (a) Schematic showing competitive inhibition of FANCM-BTR complex formation by the MM2 peptide. […] (c) Representative mitotic spreads showing sister-chromatid exchanges (SCEs) in U-2 OS cells expressing MM2-ER or FF>AA-ER mutant fusion proteins in the presence or absence of 40HT (left panel). Quantitation of SCEs (right panel). (d) Representative mitotic spreads showing sister-chromatid exchanges (SCEs) in HeLa cells expressing MM2-ER or FF>AA-ER mutant fusion proteins in the presence or absence of 40HT (left panel). Quantitation of SCEs (right panel). SCEs are indicated by black arrows. For c and d, scatterplot bars represent the mean±SEM number of SCEs from 15-30 mitotic spreads, *p<0.05, **p<0.005, Mann-Whitney test. NB: The frequency of double labelled mitoses in MM2-ER+4OHT samples was approximately 10% of that in the controls, likely due to significant cell cycle delays introduced by activation of the MM2-inhibitor. As thus, SCE levels are likely underestimated in this experiment.
For co-IP experiments involved the ER-inducible system, cells were lysed in IP buffer (20 mM Tris-HCl pH 7.5, 100 mM NaCl, 10% (v/v) glycerol, 0.5 mM EDTA, 1 mM DTT) supplemented with 1× mammalian protease inhibitor cocktail (Sigma Aldrich) and 50 U/ml Benzonase (Novagen) for 2 h at 4° C., with or without MM2 peptide variants (Mimotopes). Following lysis, NaCl concentration was increased to 250 mM, then the lysate cleared at 16,000×g for 15 mins. Supernatant was then mixed with 1 μg of α-FANCM (Abcam) or α-ER (Santa Cruz Biotechnology) and 20 μl protein G sepharose (GE Healthcare), or using α-Flag M2 agarose (Sigma Aldrich). Following 3 h of mixing at 4° C., beads were washed 4× with IP buffer, and 1× with 50 mM NH4(CO3)2, 0.5 mM EDTA, then eluted with 500 mM NH4OH (pH 11.0), 0.5 mM EDTA. Samples were then lyophilized and resuspended in 1×LDS loading buffer (Life Technologies) prior to immunoblotting.

[2] = test system: HeLa cells; experiment: FACS cell cycle analysis of FANCM-depleted HeLa cells with added agents; format: cell-based, human; details: HeLa cells depleted for FANCM; 20 μM BIBR 1532 for 7 days
Description: When indicated, cells were incubated with 1 μM camptothecin (Sigma-Aldrich) for 3 hours, 0.2 mM hydroxyurea (Sigma-Aldrich) for 16 h, 20 μM BIBR 1532 (Merck Millipore) for 7 days, and 10 μM RO-3306 (Selleckchem) for 18 h. […] For fluorescence-activated cell sorting, cells were trypsinized and pelleted by centrifugation at 500 g at 4° C. for 5 min. Cell pellets were either left untreated for viability assays or fixed in 70% ethanol at −20° C. for 30 min and treated with 25 μg/ml RNaseA (Sigma-Aldrich) in 1×PBS at 37° C. for 20 min. Cells were then washed in 1×PBS and stained with 20 μg/ml propidium iodide (Sigma-Aldrich) in 1×PBS at 4° C. for 10 min. Flow cytometry was performed on a BD FACSCalibur or a BD Accuri C6 (BD Biosciences). Data were analyzed using FlowJo software.

[3] = test system: U-2 OS ALT cells; experiment: Metaphase-TIFs after FANCM knockdown with siRNA; format: cell-based, human; details: compared to the scrambled control; siRNA 30 nM, 72 h
Description: (a) Representative images of telomere (green) and γ-H2AX (red) colocalizations on metaphase spreads (meta-TIFs) in U-2 OS cells with or without FANCM depletion (left panel). Meta-TIFs are indicated by white arrows. Scale bars are 5 μm. Quantitation of TIFs (right panel). Scatterplot bars represent the mean±SEM. Out of 3 experiments, n≥81 metaphases scored per treatment, **p<0.005, Mann-Whitney test. (b) Native and denatured TRF analysis of U-2 OS cells with or without FANCM depletion. Colored arrows correspond to telomeric DNA species depicted in panel c. (c) Schematic of migration patterns for indicated telomeric species separated by two-dimensional gel electrophoresis (top panel). Two-dimensional TRF analysis of U-2 OS cells with or without FANCM depletion, hybridized under native and denatured conditions to detect the telomeric C-strand and G-strand (left and right panels). Colored arrows correspond to telomeric DNA species depicted in schematic. (d) Representative dot blot and quantitation of C-circle assays of U-2 OS cells with or without FANCM depletion. C-circle levels were normalized to the mean of scrambled control. Error bars represent the mean±SEM from n=3 experiments, *p<0.05, **p<0.005, Student's t-test. […] Out of 3 experiments, n≥150 cells scored per treatment, *p<0.05, **p<0.005, Mann-Whitney test. […]

MM2 peptide containing the FF>AA mutant: MM2 peptide containing the FF>AA mutant (SEQ ID NO: 30) that does not bind to BTR (EDIFDCSRDLFSVTADLGACSPDSDDEILEHTSD; mutated FANCM peptide) [reference compound]
FANCM-BTR complex formation (TOP3A binding) [1]: unable to inhibit complex formation

C/C(=C\C(=O)Nc1ccccc1C(=O)O)c1ccc2ccccc2c1 [BIBR 1532]
accumulation in G2/M [2]: did not accumulated in G2/M

siFANCM1: Silencer Select siRNA FANCM1 (s33619) (SEQ ID NO: 12) (GCUCGUUCUUUGAUUCAGA; listed as RNA, chemistry not given here)
metaphase-TIFs (meta-TIFs) [3]: significant increase in metaphase-TIFs

MM2 peptide: chemically synthesized peptide (SEQ ID NO: 29) corresponding to the highly conserved 28 amino acids of the MM2 domain (EDIFDCSRDLFSVTFDLGFCSPDSDDEILEHTSD; wildtype FANCM MM2 peptide)
FANCM-BTR complex formation (TOP3A binding) [1]: dose-dependent inhibition of FANCM-BTR complex formation
FANCM-BTR complex formation (TOP3A binding) ([1]; listed as MM2-WT): diminishes with increasing concentrations
